These are literature values, as cited in paper PMC5680199.

This series concerns the target human thrombin (human) (UniProt P00734+P00734). Nature of the series: not stated (cited). The note with it: phi29 DNA polymerase buffer adjusted to 10 mM K+ (optimum), ThT-HE 5 uM, 37 C, 2 h; pH not given in material.

pKd: −log10 of the molar value.

In the case of 29-mer thrombin-binding aptamer (TBA), the pKd is 9.30.
